Reference: US9745384B2, “Peptides useful for modulating histone demethylase function” (The Brigham and Women's Hospital, Inc., priority 2012, dated 2017)
Ends that are not written are not given here.

Assays:
His-LSD2 [1] = molecular target: T1, His-LSD2 (Homo sapiens, UniProt Q8NB78); test: Nucleosome demethylation assay (NPAC cofactor activity for LSD2, immunoblot); format: biochemical; conditions: threshold dosage of His-LSD2; nucleosomes purified from HeLa
T1 construct: typically 0.5 μg full-length His-LSD2; made in house; host or cells: Sf9 insect cells
T1 sequence (Q8NB78 1-822): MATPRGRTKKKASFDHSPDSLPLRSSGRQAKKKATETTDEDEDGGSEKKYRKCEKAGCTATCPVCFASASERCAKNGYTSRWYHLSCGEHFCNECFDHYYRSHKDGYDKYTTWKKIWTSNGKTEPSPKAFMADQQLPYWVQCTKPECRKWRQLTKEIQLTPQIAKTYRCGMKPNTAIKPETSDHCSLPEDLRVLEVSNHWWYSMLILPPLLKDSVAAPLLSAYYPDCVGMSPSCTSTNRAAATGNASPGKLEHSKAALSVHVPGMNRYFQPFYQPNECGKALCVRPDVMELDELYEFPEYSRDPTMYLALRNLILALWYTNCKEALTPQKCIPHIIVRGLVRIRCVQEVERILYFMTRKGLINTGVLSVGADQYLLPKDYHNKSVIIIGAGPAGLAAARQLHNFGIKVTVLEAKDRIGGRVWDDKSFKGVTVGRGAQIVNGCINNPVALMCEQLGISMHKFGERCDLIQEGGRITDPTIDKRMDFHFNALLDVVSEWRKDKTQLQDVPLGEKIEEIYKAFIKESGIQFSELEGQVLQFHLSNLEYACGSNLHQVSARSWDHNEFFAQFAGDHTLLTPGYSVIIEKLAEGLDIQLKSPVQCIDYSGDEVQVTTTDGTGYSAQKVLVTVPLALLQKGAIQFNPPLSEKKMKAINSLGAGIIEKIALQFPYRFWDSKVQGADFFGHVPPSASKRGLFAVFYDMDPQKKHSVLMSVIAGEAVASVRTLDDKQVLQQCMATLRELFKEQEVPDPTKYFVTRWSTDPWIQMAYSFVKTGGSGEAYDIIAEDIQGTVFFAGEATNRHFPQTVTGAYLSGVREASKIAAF
Experimental: For nucleosome demethylation assays, typically 0.5 μg full-length His-LSD2, 1 μg NPAC protein or peptides, and 2 μg nucleosomes purified from HeLa were used, and demethylation efficiency was analyzed by SDS-PAGE electrophoresis and immunoblot using methylation specific anti-histone H3 antibodies as previously described (Shi et al. 2004).

His-LSD2 [2] = molecular target: T1, His-LSD2; test: GST-pulldown of His-LSD2 by GST-NPAC proteins; format: binding; conditions: coomassie blue staining
Experimental: […] GST or GST-NPAC fusion proteins were bound to glutathione agarose, and were incubated with 2 μg full-length His-LSD2 overnight in 50 mM NaPO4 pH 7.4, 150 mM NaCl, 0.5% NP-40, 5% glycerol, 10 μM ZnSO4, 1 mM MgCl2, 1 mM DTT, 0.1 mM PMSF at 4° C. After washed 4 times with same buffer at 4° C., glutathione agarose beads were boiled in 1×SDS sample loading buffer. Elute was resolved on a 15% SDS-PAGE gel and stained by coomassie blue.

LSD2 (residues 51-822) = molecular target: T2, LSD2 (residues 51-822) (Homo sapiens, UniProt Q8NB78); test: ITC binding of wild-type and mutant NPAC peptides (residues 214-225) with LSD2; conditions: 15 °C; 3 mM NPAC peptide injected into 0.2 mM LSD2
T2 construct: Human LSD2 (residues 51-822) was subcloned into a pFastBacl derivative; His6 (cleaved yes); made in house; host or cells: Sf9 insect cells (baculovirus)
T2 sequence (Q8NB78 51-822): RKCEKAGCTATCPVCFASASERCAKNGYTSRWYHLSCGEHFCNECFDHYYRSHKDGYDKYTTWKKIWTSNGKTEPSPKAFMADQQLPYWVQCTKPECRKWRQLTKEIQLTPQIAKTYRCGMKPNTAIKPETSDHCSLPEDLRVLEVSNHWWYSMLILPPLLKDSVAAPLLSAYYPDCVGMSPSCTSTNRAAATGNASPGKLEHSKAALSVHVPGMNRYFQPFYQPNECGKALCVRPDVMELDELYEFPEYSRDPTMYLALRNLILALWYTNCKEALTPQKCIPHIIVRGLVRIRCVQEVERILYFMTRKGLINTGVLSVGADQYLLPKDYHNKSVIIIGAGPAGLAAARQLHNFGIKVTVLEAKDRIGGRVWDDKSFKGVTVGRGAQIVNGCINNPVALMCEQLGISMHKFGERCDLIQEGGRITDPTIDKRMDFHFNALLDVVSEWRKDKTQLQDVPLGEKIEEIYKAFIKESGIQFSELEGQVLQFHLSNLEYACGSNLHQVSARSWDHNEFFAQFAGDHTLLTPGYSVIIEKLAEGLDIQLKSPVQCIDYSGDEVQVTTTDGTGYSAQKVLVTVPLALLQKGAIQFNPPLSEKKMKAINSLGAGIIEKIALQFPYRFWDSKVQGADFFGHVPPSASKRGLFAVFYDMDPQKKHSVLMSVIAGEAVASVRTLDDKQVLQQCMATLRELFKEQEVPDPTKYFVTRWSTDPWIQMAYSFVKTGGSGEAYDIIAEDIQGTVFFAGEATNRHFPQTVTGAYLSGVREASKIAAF
Experimental: All proteins and peptides were prepared in 10 mM HEPES, pH 8.0, and 0.1 M NaCl. The data were fitted by software Origin 7.0.

NP.d7: NPAC residues 152-186, containing the AT hook motif (SERGSKSPLKRAQEQSPRKRGRPPKDEKDLTIPES; also: fused to dimerising Fc or GST)
Cofactor activity: stimulation of LSD2 demethylation of nucleosomal H3K4me2 (His-LSD2 [1]): but not NP.d7 or NP.d9, significantly enhances LSD2 histone demethylase activity
LSD2 binding (GST-pulldown) (His-LSD2 [2]): but not NP.d7 (residues 152-186, containing the AT hook motif, lane 4), is sufficient for LSD2 interaction

CC(C)C[C@H](NC(=O)[C@H](Cc1ccccc1)NC(=O)[C@H](Cc1c[nH]cn1)NC(=O)[C@H](Cc1c[nH]cn1)NC(=O)[C@H](C)NC(=O)[C@H](C)NC(=O)[C@@H]1CCCN1C(=O)[C@H](C)N)C(=O)N[C@@H](CC(C)C)C(=O)N[C@@H](CO)C(=O)N[C@@H](CCC(N)=O)C(=O)N[C@H](C(=O)O)[C@@H](C)O [NPAC.214-225.M8]
Δ H (LSD2 (residues 51-822)): -34.68 ± 0.423 kJ/mol
Δ S (LSD2 (residues 51-822)): −1.3 cal/mol/deg

B1: NP.d1: GST-tagged NPAC truncation, PWWP domain, residues 1-150 (protein)
chain: MAAVSLRLGDLVWGKLGRYPPWPGKIVNPPKDLKKPRGKKCFFVKFFGTEDHAWIKVEQLKPYHAHKEEMIKINKGKRFQQAVDAVEEFLRRAKGKDQTSSHNSSDDKNRRNSSEERSRPNSGDEKRKLSLSEGKVKKNMGEGKKRVSSG
modifications: left off: a dimerising Fc or GST
Cofactor activity: stimulation of LSD2 demethylation of nucleosomal H3K4me2 (His-LSD2 [1]): Neither the PWWP domain (SEQ ID NO: 63) (NP.d1, residues 1-150) nor the dehydrogenase domain (NP.d5, residues 262-553) stimulated LSD2
LSD2 binding (GST-pulldown) (His-LSD2 [2]): Neither the PWWP domain (SEQ ID NO: 63) (NP.d1) nor the dehydrogenase domain (NP.d5) interacts with LSD2

B2: NP.d4: GST-tagged NPAC truncation, residues 152-553 (protein)
chain: SERGSKSPLKRAQEQSPRKRGRPPKDEKDLTIPESSTVKGMMAGPMAAFKWQPTASEPVKDADPHFHHFLLSQTEKPAVCYQAITKKLKICEEETGSTSIQAADSTAVNGSITPTDKKIGFLGLGLMGSGIVSNLLKMGHTVTVWNRTAEKCDLFIQEGARLGRTPAEVVSTCDITFACVSDPKAAKDLVLGPSGVLQGIRPGKCYVDMSTVDADTVTELAQVIVSRGGRFLEAPVSGNQQLSNDGMLVILAAGDRGLYEDCSSCFQAMGKTSFFLGEVGNAAKMMLIVNMVQGSFMATIAEGLTLAHVTGQSQQTLLDILNQGQLASIFLDQKCQNILQGNFKPDFYLKYIQKDLRLAIALGDAVNHPTPMAAAANEVYKRAKALDQSDNDMSAVYRAYIH
modifications: left off: a dimerising Fc or GST
Cofactor activity: stimulation of LSD2 demethylation of nucleosomal H3K4me2 (His-LSD2 [1]): significantly enhance LSD2 demethylase activity
LSD2 binding (GST-pulldown) (His-LSD2 [2]): capable of directly interacting with LSD2

B3: NP.d3: GST-tagged NPAC truncation, residues 152-252 (protein)
chain: SERGSKSPLKRAQEQSPRKRGRPPKDEKDLTIPESSTVKGMMAGPMAAFKWQPTASEPVKDADPHFHHFLLSQTEKPAVCYQAITKKLKICEEETGSTSIQ
modifications: left off: a dimerising Fc or GST
Cofactor activity: stimulation of LSD2 demethylation of nucleosomal H3K4me2 (His-LSD2 [1]): significantly enhance LSD2 demethylase activity
LSD2 binding (GST-pulldown) (His-LSD2 [2]): capable of directly interacting with LSD2

B4: NP.d6: NPAC with deletion of the linker region (residues 152-252) (protein)
chain: MAAVSLRLGDLVWGKLGRYPPWPGKIVNPPKDLKKPRGKKCFFVKFFGTEDHAWIKVEQLKPYHAHKEEMIKINKGKRFQQAVDAVEEFLRRAKGKDQTSSHNSSDDKNRRNSSEERSRPNSGDEKRKLSLSEGKVKKNMGEGKKRVSSGSAADSTAVNGSITPTDKKIGFLGLGLMGSGIVSNLLKMGHTVTVWNRTAEKCDLFIQEGARLGRTPAEVVSTCDITFACVSDPKAAKDLVLGPSGVLQGIRPGKCYVDMSTVDADTVTELAQVIVSRGGRFLEAPVSGNQQLSNDGMLVILAAGDRGLYEDCSSCFQAMGKTSFFLGEVGNAAKMMLIVNMVQGSFMATIAEGLTLAHVTGQSQQTLLDILNQGQLASIFLDQKCQNILQGNFKPDFYLKYIQKDLRLAIALGDAVNHPTPMAAAANEVYKRAKALDQSDNDMSAVYRAYIH
modifications: left off: a dimerising Fc or GST; small tags and cut ends
Cofactor activity: stimulation of LSD2 demethylation of nucleosomal H3K4me2 (His-LSD2 [1]): abolishes cofactor activity
LSD2 binding (GST-pulldown) (His-LSD2 [2]): abolishes NPAC-LSD2 interaction

B5: NP.d5: GST-tagged NPAC truncation, dehydrogenase domain, residues 262-553 (protein)
chain: SITPTDKKIGFLGLGLMGSGIVSNLLKMGHTVTVWNRTAEKCDLFIQEGARLGRTPAEVVSTCDITFACVSDPKAAKDLVLGPSGVLQGIRPGKCYVDMSTVDADTVTELAQVIVSRGGRFLEAPVSGNQQLSNDGMLVILAAGDRGLYEDCSSCFQAMGKTSFFLGEVGNAAKMMLIVNMVQGSFMATIAEGLTLAHVTGQSQQTLLDILNQGQLASIFLDQKCQNILQGNFKPDFYLKYIQKDLRLAIALGDAVNHPTPMAAAANEVYKRAKALDQSDNDMSAVYRAYIH
modifications: left off: a dimerising Fc or GST
Cofactor activity: stimulation of LSD2 demethylation of nucleosomal H3K4me2 (His-LSD2 [1]): Neither the PWWP domain (SEQ ID NO: 63) (NP.d1, residues 1-150) nor the dehydrogenase domain (NP.d5, residues 262-553) stimulated LSD2
LSD2 binding (GST-pulldown) (His-LSD2 [2]): Neither the PWWP domain (SEQ ID NO: 63) (NP.d1) nor the dehydrogenase domain (NP.d5) interacts with LSD2

B6: NP.d2: GST-tagged NPAC truncation, residues 1-252 (protein)
chain: MAAVSLRLGDLVWGKLGRYPPWPGKIVNPPKDLKKPRGKKCFFVKFFGTEDHAWIKVEQLKPYHAHKEEMIKINKGKRFQQAVDAVEEFLRRAKGKDQTSSHNSSDDKNRRNSSEERSRPNSGDEKRKLSLSEGKVKKNMGEGKKRVSSGSSERGSKSPLKRAQEQSPRKRGRPPKDEKDLTIPESSTVKGMMAGPMAAFKWQPTASEPVKDADPHFHHFLLSQTEKPAVCYQAITKKLKICEEETGSTSIQ
modifications: left off: a dimerising Fc or GST
Cofactor activity: stimulation of LSD2 demethylation of nucleosomal H3K4me2 (His-LSD2 [1]): significantly enhance LSD2 demethylase activity
LSD2 binding (GST-pulldown) (His-LSD2 [2]): capable of directly interacting with LSD2
